Measured values reported in the DeepSol protein solubility set.

Assay: soluble on expression in E. coli; label from the status in PepcDB or PDB records

Sequence	soluble on expression in E. coli
MSIEQTLSQYLPSHPKPQGVTFTYGTAGFRMKADKLDYVTFTVGIIASLRSKYLQGKTVGVMITASHNPPEDNGVKVVDPLGSMLESSWEKYATDLANASPSPSNDSEGEKNSLVEVIKNLVSDLKIDLSIPANVVIARDSRESSPALSMATIDGFQSVPNTKYQDFGLFTTPELHYVTRTLNDPDFGKPTEDGYYSKLAKSFQEIYTICESNNEKIDITIDAANGVGAPKIQELLEKYLHKEISFTVVNGDYKQPNLLNFDCGADYVKTNQKLPKNVKPVNNKLYASFDGDADRLICYYQNNDNKFKLLDGDKLSTLFALFLQQLFKQIDPTKISLNIGVVQTAYANGSSTKYVEDVLKIPVRCTPTGVKHLHHEAENFDIGVYFEANGHGTVIFNPEAEKKIFDYKPNNDNEAKAIKVLQNFSQLINQTVGDAISDLLAVLIVVHYLKLSPSDWDNEYTDLPNKLVKVIVPDRSIFKTTNAERTLVEPKGMQDEIDKLVAQYPNGRSFVRASGTEDAVRVYAEADTQNNVEELSKAVSELVK	soluble
MLKIDAIAFFGSKTKLANVAGVRLASVAAWGELVPEGRAMRLQEASGGELQYDPKVYDEYRKAKRAGRLNNENHH	not soluble
MVNIDKIIGINNLPLANGLGEYAKRMEAVLGKNILSLVMDKRYKDMDYAGRKIYGYYPPITNGYLLNVYLSRSILKKYYKGKFPHLLSPFFYLGSEYESKSIITIHDTYYKWEKNKMQRLSKKIVRKYRSFKNIISISEQTKNDLIADGYDADNISVIYNYIDPIFRKLESINKDEKTVLTVGDGIHKNNILVNKIVNGRYYHIHIGKEVRADENYSGISTEELVKLYNRASVLIRLSDYEGFGYPPLEALFCGTPAVVSDIAVFRELLGDSAVYVKKDEVSILDGIEYAIQNRKEMLNRFESKIKSRYTKERFISNMIKYYKDL	soluble
MSLRTILVTGASGFVGGALCRQLATLGSFAIRAASRDLGGASVAGIQAVTVADLSATTDWARALSGVDLVVHAAARVHVMKETASDSLAEFRRVNVDGTLNLARQAAAAGVRRFIFISSIKVNGESSQPGQPLRADDSPAPQDAYGVSKHEAEQGLRQLAAATGMEVVVIRPVLVYGPGVKANFHSMMRWLQRGVPLPFGAVCNRRSLVSLANLVDLVVTCIDHPRAANQTFLASDGDDVSLTQLLRALGLALGRPARLLPVPAGLLRGAVLLIGRRDLAQRLFGTLQVDIEKNRQLLGWYPPCTLEQGLNMTARSFLGARREGHHHHHH	soluble
SITSTVLPPVYNQQNEDTCIIRISVEDNNGNMYKSIMLTSQDKTPAVIQRAMSKHNLESDPAEEYELVQVISEDKELVIPDSANVFYAMNSQVNFDFILRKKN	soluble
SSSSVPNSDRKIVTGPAGYILEDVPHFSDDFPDHPTYPNPLQDNAAYSVVKQYFVDEDDTVPQKIVVHPDSPRGTHFRRAGPRQRVYFESDDVLACIVTCGGLCPGLNTVIREIVCGLSYMYGVKRILGIDGGYRGFYARNTIHLDLKTVNDIHRSGGTILGTSRGGHNTTKIVDSIQDRGINQVYIIGGDGSQKGAAAIFEEIRKRKLKVAVAGIPKTIDNDIPIIDRSFGFDTAVEEAQRAINAAHVEATSFENGIGLVKLMGRYSGFIAMHATLASRDVDCCLIPESPFFLEGSGGLFEFIDKRLKESGHMVIVIAEGAGQDLLSESMKESTTLKDASGNKLLQDIGLWISQRIKDHFAKKMTLTLKYIDPTYMIRAVPSNASDNVCCTLLAQSAVHGVMAGYNGFTVGLVNGRHTYIPFNRITEKQNKVVITDRMWARLLSSTNQPSFMKQADKIHSNQLVGEPGTMKW	soluble
MAQKPLRLLACGDVEGKFDILFNRVQAIQKKSGNFDLLLCVGNFFGSTQDAEWEEYKTGIKKVPIQTYVLGANNQETVKYFQDADGCELAENITYLGRKGIFTGSSGLQIVYLSGTESLNEPVPGYSFSPKDVSSLRMMLCTTSQFKGVDILLTSPWPKCVGNFGNSSGEVDTKKCGSALVSSLATGLKPRYHFAALEKTYYERLPYRNHIILQENAQHATRFIALANVGNPEKKKYLYAFSIVPMKLMDAAELVKQPPDVTENPYRKSGQEASIGKQILAPVEESACQFFFDLNEKQGRKRSSTGRDSKSSPHPKQPRKPPQPPGPCWFCLASPEVEKHLVVNIGTHCYLALAKGGLSDDHVLILPIGHYQSVVELSAEVVEEVEKYKATLRRFFKSRGKWCVVFERNYKSHHLQLQVIPVPISCSTTDDIKDAFITQAQEQQIELLEIPEHSDIKQIAQPGAAYFYVELDTGEKLFHRIKKNFPLQFGREVLASEAILNVPDKSDWRQCQISKEDEETLARRFRKDFEPYDFTLDD	soluble
SNAQVEVIVMMHGRSTATSMVETVQELLSIESGIALDMPLTVEVKAMYEKLKQTVVKLNPVKGVLILSDMGSLTSFGNILTEELGIRTKTVTMVSTPVVLEAMRKASLGRGLEDIYQSCEQLFENKYKAH	soluble
MSETVSVESSVDSNINQDVNIRATYLGAHELKLAASLLYQAYHDDPVFLDIFKSDKEDYEQRLRGAIREELNAFWQAKQPMIGLYLGEAMVGVACINSPDETLASDRFWHWRLKMLLNAGYFSTKQMMQKEHTVLAAVPLKIFHFLSFIAVHPLHQQHGFGHYLMAAVNTVLDEHPDSEGVAVYATSGKFKEFFKQVDYHTVKEVTVGNVCGSVMVHYRDKEE	soluble
MLPFAPQDEPWDREMEVFSGGGASSGEVNGLKMVDEPMEEGEADSCHDEGVVKEIPITHHVKEGYEKADPAQFELLKVLGQGSFGKVFLVRKKTGPDAGQLYAMKVLKKASLKVRDRVRTKMERDILVEVNHPFIVKLHYAFQTEGKLYLILDFLRGGDVFTRLSKEVLFTEEDVKFYLAELALALDHLHQLGIVYRDLKPENILLDEIGHIKLTDFGLSKESVDQEKKAYSFCGTVEYMAPEVVNRRGHSQSADWWSYGVLMFEMLTGTLPFQGKDRNETMNMILKAKLGMPQFLSAEAQSLLRMLFKRNPANRLGSEGVEEIKRHLFFANIDWDKLYKREVQPPFKPASGKPDDTFCFDPEFTAKTPKDSPGLPASANAHQLFKGFSFVATSIAEEYKITPITSANVLPIVQINGNAAQFGEVYELKEDIGVGSYSVCKRCIHATTNMEFAVKIIDKSKRDPSEEIEILMRYGQHPNIITLKDVFDDGRYVYLVTDLMKGGELLDRILKQKCFSEREASDILYVISKTVDYLHCQGVVHRDLKPSNILYMDESASADSIRICDFGFAKQLRGENGLLLTPCYTANFVAPEVLMQQGYDAACDIWSLGVLFYTMLAGYTPFANGPNDTPEEILLRIGNGKFSLSGGNWDNISDGAKDLLSHMLHMDPHQRYTAEQILKHSWITHRDQLPNDQPKRNDVSHVVKGAMVATYSALTHKTFQPVLEPVAASSLAQRRSMKKRTSTGL	soluble
HHHHHHDYDIPTTENLYFQGAITLLTLIKTAEHWARQDIRTIEDSKLRALLTLCAVMTRKFSKSQLSLLCETHLRREGLGQDQAEPVLEVYQRLHSDKGGSFEAALWQQWDRQSLIMFITAFLNIALQLPCESSAVVVSGLRTLVPQSDNEE	soluble
MGSDKIHHHHHHLGILDAPAVQPSKVGLEALYAKTSASLGLFHTSLAGRHFAPCKILVVGDSISEGAGATLNIRNRWQDRLKENLRSRFPTDGSPGTTLHYVPAMNVVNMPGDMAVRSAGVTTGTSFGFGARHAQLTAAGHTVTFTVTGTSAKVVYPKSSGGGSFTWQVDGGTVSSAVSQSAGSLTDGFTTDIPLGASGSHTVVIAWVSGGSVFIDGLLVYNGDETKGIHVIDGAHSGWGAQNFQLNGIQFYQGSLTTMLQPSLVIIALGINDFAFGSLSIANYKIHMQSNIDRYRGAIPTKPPSILLVAMHRRSPVSAVATWAEYVQAMKELAQANDGVAFLDLSARLPQVSGDTRGLYADEVHPANLGHSAIADNVTSFIVPR	not soluble
MAGDPMTSLTYLQGYPEHLLAQVRALIAEQRLGAVLEKRYPGAHDYATDKALYHYTQELKSQFLRNAPPINKVMYDSKIHVLKNALGLHTAVSRVQGGKLKAKAEIRVATVFRNAPEPFLRMIVVHELAHLKEKDHNKAFYQLCCHMEPQYHQLEFDTRLWLTHQALSAQLEHHHHHH	not soluble
MGSDKIHHHHHHMKKLVATAPRVAELVEYHDREVVEDEVKIKVQFASPKHGTEVVDFRGISPFIDEEFSPEWNLFVSRETNSARGIVFGEFQLGNMVVGEVVECGSKVTEYALGDIVCSYGPIMETVIVKAVDNYKLRKLPKGANWKNAVCYDPAQFAMSGVRDAHVRAGDYVVVVGLGAIGQIAIQLAKKAGASVVIGVDPLSHRREIAEKHGADATFDPITTDVGLEVKRLTGKLGADSIIETSGNAAALQAALRGIAYGGTISYVAFAKPFPEGFNLGREAHFNNAKIVFSRAASEPNPDYPRWDRKRIEETCWELLMNGYLDCTDIIDPVVPFADSAESYMKYVDQQPDLSIKMGITL	not soluble
MGSDKIHHHHHHMASLPRLYYVTSGLDEANAFATWRAVISPLFEPRPCGPSRKTPTGSAYGIIIGDLVVAKVAFNAQDFVRDAQRIAVTPDHLLLHLYVSGGFNGEVTRQQTVIGPGKVALIDLACPLSTRAFASNTMCLIVPRKLLAGLPLHALKPKLDPLRNDLLAAYIRSLQERSAQLTEADVATTVAETADFLRRLLAPSAEADLAPERSADETILALTEALIRDNLALPELSPDWLAQQLDVSRASLYRLFAERGGVMRYVQERRLLAVQAALADPLETRRLSRLASDLGFKSEAHFSRSFRARFGITASAYRKAQLDASAAIQLTSPAVVQQWWTAVARDPLRHAG	not soluble
GSSMKASSGDQGSPPCFLRFPRPVRVVSGAEAELKCVVLGEPPPVVVWEKGGQQLAASERLSFPADGAEHGLLLTAALPTDAGVYVCRARNAAGEAYAAAAVTVLEPPA	soluble
MAPVLENRRARHDYEILETYEAGIALKGTEVKSLRAGKVDFTGSFARFEDGELYLENLYIAPYEKGSYANVDPRRKRKLLLHKHELRRLLGKVEQKGLTLVPLKIYFNERGYAKVLLGLARGKKAYEKRREDKKEAVRRALEEL	soluble
MMGSKMASASRVVQVVKPHTPLIRFPDRRDNPKPNVSEALRSAGLPSHSSVISQHSKGSKSPDLLMYQGPPDTAEIIKTLPQKYRRKLVSQEEMEFIQRGGPE	soluble
MGSDKIHHHHHHMTVHDRIVAEPFSLQRRNPAGGTKPLTSWGFANETDVLTDVLLGSPNFLRHLSTSSLSRKHLREAPCNVQIAQAQHKDLVAAYEHFGVNIHWHEPTPELPMQVYSRDSSVMTPYGAIITAMANWWRRGENYAAIRTYEKLGIPIYDMVTAGTFEGGDFNVIEDGVVLIGCGGARTQEEGARQVQAWFEKEGWETRIAFIDEYYVHIDLMVVPIAEKLTAVCLACTEPGIVDWLKGKGHEIIDVPFQDTMALGCNFMSLGKDRVIAPTSSQTLIGQLKARGFEVAAVDMSEISKTGGGIHCMAQALKREAA	not soluble
MGSDKIHHHHHHMTKHFSPYDADKPLFATCSCGQHASEEDHLKAGMSTLEHQETGRSTEEEFSNDFIEAALVKAILPHERQRRDFLRAVGKGAAMAAISAVFPLGSLKAMAMEKGSIEKSTLKVGFIPITCAAPLILAEPMGFFKEQGLNVELNKTAGWALVRDKIMNHEYDASQFLAPMPLAMTLGAGSSAQTVNVAAIQNVNGQAIVLALKHKSNRDPKNWKGFKFAIPFEFSMHNFLLRYYLAEAGIDPDRDVQLRVVPPAEMLANLRAGNIDGFLGPDPFSQRAVFEGVGFIHILSQDIWNGHPCCSFGASASFIQQNPNTFAALYRAFLKSSAFAHDKNNRKEVAAIISKPKYLNQPEIIVNQVITGRYADGLGNIVNAPGRVGFEAIPWEGMALWMLTQMKRWGYLKGDVSYQAIAEKVFMMTDAKKAMQGLGLEVPQSSGKIVVMGKAFDPLKPQSYVDSFGIKR	not soluble
